In assay [1] the target is T1, human PD-1 on engineered CHO-S cells (W305-CHO-S.hPro1.C6) (human, UniProt Q15116 25-288).
T1 construct: whole, on cells; also called human PD-1 engineered cells; PD-1+ cells
Put plainly: competitive FACS on human PD-1 CHO-S cells with 5 ug/ml PD-L1 ECD.mFc (competitor: PD-L1). Here is the method: (§1) In order to test whether the bispecific antibodies could block hPD-L1 binding to hPD-1 protein, a competitive FACS was conducted. […] Plates were incubated at 4° C. for 1 hour. After wash, the binding of W315-hPro1.ECD.mFc to cell expressive human PD-1 was detected by FITC-labeled goat anti-mouse antibody (abcam 98716 1:125). The competition binding of antibodies to the cells was tested by flow cytometry and the mean fluorescence intensity (MFI) was analyzed by FlowJo.

In assay [2] the target is T2, hCTLA4.ECD.hFc (human).
T2 construct: ECD fused to a human Fc; not biotinylated; also called Human CTLA-4: W316-hPro1.ECD.hFc (in house)
The assay is described as follows: dual-binding ELISA (hCTLA4.ECD.hFc coated, detected with hPD-1-ECD.Biotin), sample kept 1 d in human serum at 37 C. Here is the method:
(§2) The antibodies were incubated in freshly isolated human serum at 37° C. On indicated time points, an aliquot of serum treated sample was removed from the incubator and snap frozen in liquid nitrogen, and then stored at −80° C. until ready for a dual-binding ELISA test. The frozen samples were quickly thawed immediately prior to the stability test. Briefly, plates were pre-coated with 0.5 μg/mL of hCTLA4.ECD.hFc (in house) at 4° C. overnight. After 1-hour blocking, the testing antibodies were added to the plates at various concentrations. The plates were incubated at ambient temperature for 1 hour. Following the incubation, the plates were washed three times with 300 μL per well of PBS containing 0.5% (v/v) Tween 20. Then 0.1 μg/ml hPD-1-ECD.Biotin was added to plates and the mixture was incubated for 1 hour. After washing the plates three times, Streptavidin-HRP (Lifetechnologies, #SNN1004) (1:20000 diluted) was added and incubated on the plates for 1 hour at room temperature. After washing six times with 300 μL per well of PBS containing 0.5% (v/v) Tween 20, 100 μL tetramethylbenzidine (TMB) substrate is added for the detection per well. The reaction was stopped after approximately 5 minutes by addition of 100 μL per well of 2 M HCl. The absorbance of the wells was measured at 450 nm with a multiwall plate reader (SpectraMax® M5e). […]
(In an ELISA, binding on a coated surface is turned into a signal by an enzyme label.)

The target in assay [3] is T2, hCTLA4.ECD.hFc. The assay is described as follows: dual-binding ELISA (hCTLA4.ECD.hFc coated, detected with hPD-1-ECD.Biotin), sample kept 7 d in human serum at 37 C. Here is the method:
as §2

Assay [4] addresses T2, hCTLA4.ECD.hFc. Put plainly: dual-binding ELISA (hCTLA4.ECD.hFc coated, detected with hPD-1-ECD.Biotin), sample kept 0 d in human serum at 37 C. Here is the method:
as §2

The target in assay [5] is T3, cynomolgus CTLA-4 on engineered 293F cells (W316-293F.cynoPro1.F1.Pool) (cynomolgus).
T3 construct: whole, on cells; also called cynomolgus CTLA-4 engineered cells
The assay is described as follows: FACS binding to cynomolgus CTLA-4 engineered cells. Here is the method:
4-fold titrated Abs with 1% BSA DPBS from 40 μg/ml to 0.00004 μg/ml were added to the cells. Plates were incubated at 4° C. for 1 hour. After wash, […] 1:150 diluted PE-labeled goat anti-human antibody (Jackson 109-115-098) was added to each well and the plates were incubated at 4° C. for 1 hour. The binding of the antibodies onto the cells was tested by flow cytometry and the mean fluorescence intensity (MFI) was analyzed by FlowJo.
On the technique in general: In flow cytometry, cells or beads pass a laser one at a time.

In assay [6] the target is T4, cynomolgus PD-1 on engineered 293F cells (W305-293F.cynoPro1.FL.pool) (cynomolgus).
T4 construct: whole, on cells; also called cynomolgus PD-1 engineered cells
Put plainly: FACS binding to cynomolgus PD-1 engineered cells. Here is the method:
4.0-fold titrated Abs with 1% BSA DPBS from 40 μg/ml to 0.0001526 μg/ml were added to the cells. Plates were incubated at 4° C. for 1 hour. After wash, […] 1:150 diluted PE-labeled goat anti-human antibody (Jackson 109-115-098) was added to each well and the plates were incubated at 4° C. for 1 hour. The binding of the antibodies onto the cells was tested by flow cytometry and the mean fluorescence intensity (MFI) was analyzed by FlowJo.

For assay [7], the target named is T1, human PD-1 on engineered CHO-S cells …. Put plainly: FACS competition: blocks human PD-L1 protein (W315-hPro1.ECD.mFc) binding to human PD-1 engineered cells. Here is the method: as §1
The target is the same in assay [8]. The assay is described as follows: FACS binding to human PD-1 engineered cells. Here is the method: Engineered human PD-1 expressing cells W305-CHO-S.hPro1.C6 were seeded at 1×10⁵ cells/well in U-bottom 96-well plates (COSTAR 3799). Antibodies with 3.16-fold titration in 1% BSA DPBS from 200 nM to 0.002 nM were added to the cells. The plates were incubated at 4° C. for 1 hour. After wash, […] 1:125 diluted PE-labeled goat anti-human antibody (Jackson 109-115-098) was added to each well and the plates were incubated at 4° C. for 1 hour. The binding of the antibodies onto the cells was tested by flow cytometry and the mean fluorescence intensity (MFI) was analyzed by FlowJo.

Assay [9] has as its target T2, hCTLA4.ECD.hFc. Put plainly: dual-binding ELISA (hCTLA4.ECD.hFc coated, detected with hPD-1-ECD.Biotin), sample kept 14 d in human serum at 37 C. Here is the method: as §2

T2 sequence (P16410 36-161): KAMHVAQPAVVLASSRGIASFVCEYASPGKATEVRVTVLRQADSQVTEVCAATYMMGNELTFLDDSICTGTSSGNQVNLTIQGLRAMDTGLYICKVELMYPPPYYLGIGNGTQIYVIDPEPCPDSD
T1 sequence (Q15116 25-288, change not shown): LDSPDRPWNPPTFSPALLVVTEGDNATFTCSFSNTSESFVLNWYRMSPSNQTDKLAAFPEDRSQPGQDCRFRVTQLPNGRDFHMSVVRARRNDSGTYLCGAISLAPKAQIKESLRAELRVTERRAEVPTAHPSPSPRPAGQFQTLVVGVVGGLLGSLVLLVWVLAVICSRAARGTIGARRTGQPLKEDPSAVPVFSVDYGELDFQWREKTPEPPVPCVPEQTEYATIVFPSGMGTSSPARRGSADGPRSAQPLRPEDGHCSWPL

B1: W3248-U6T5.G25-1.uIgG4.SP, bispecific anti-PD-1 x CTLA-4 (bispecific antibody)
heavy: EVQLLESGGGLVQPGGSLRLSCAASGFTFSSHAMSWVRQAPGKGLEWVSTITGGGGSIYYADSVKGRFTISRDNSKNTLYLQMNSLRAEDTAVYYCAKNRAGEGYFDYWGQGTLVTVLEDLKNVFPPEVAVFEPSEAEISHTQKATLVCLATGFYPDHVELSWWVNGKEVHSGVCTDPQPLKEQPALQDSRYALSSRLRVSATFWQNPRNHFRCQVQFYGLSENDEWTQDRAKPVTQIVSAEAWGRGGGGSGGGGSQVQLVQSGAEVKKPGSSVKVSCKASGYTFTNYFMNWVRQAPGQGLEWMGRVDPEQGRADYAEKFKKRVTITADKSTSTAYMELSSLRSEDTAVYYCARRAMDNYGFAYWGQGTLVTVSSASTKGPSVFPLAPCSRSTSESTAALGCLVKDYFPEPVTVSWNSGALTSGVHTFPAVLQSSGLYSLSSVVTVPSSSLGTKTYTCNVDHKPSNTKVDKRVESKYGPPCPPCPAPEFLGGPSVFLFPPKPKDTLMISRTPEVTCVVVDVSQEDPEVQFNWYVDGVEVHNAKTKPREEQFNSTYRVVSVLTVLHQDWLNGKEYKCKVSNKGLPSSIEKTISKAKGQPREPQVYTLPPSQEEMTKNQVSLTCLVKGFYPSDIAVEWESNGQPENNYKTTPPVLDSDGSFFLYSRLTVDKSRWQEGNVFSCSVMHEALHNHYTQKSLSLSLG
light 1: SYELTQPLSVSVALGQTARITCGGDNIGNKDVHWYQQKPGQAPVLVIYRDSNRPSGIPEGFSGSNSGNTATLTISRAQAGDEADYYCQVWDSIWVFGGGTKLTVLPDIQNPDPAVYQLRDSKSSDKSVCLFTDFDSQTQVSQSKDSDVYITDKCVLDMRSMDFKSNSAVAWSQKSDFACANAFQNSIIPEDTFFPSPESS
light 2: EIVLTQSPDFQSVTPKEKVTITCSANSALSYMYWYQQKPDQSPKLWVHGTSNLASGVPSRFSGSGSGTDFTLTINSLEAEDAATYYCHHWSNTQWTFGGGTKVEIKRTVAAPSVFIFPPSDEQLKSGTASVVCLLNNFYPREAKVQWKVDNALQSGNSQESVTEQDSKDSTYSLSSTLTLSKADYEKHKVYACEVTHQGLSSPVTKSFNRGEC
notes: IgG4 (S228P); also called WBP3248-U6T5.G25-1-uIgG4.SP; U6T5.G25.IgG4
The molecule B1 returned an IC50 in assay [1] of 1.92 nM. The EC50 in the assay with hCTLA4.ECD.hFc [2] came out at 0.0978 nM; with hCTLA4.ECD.hFc [3], 0.101 nM; with hCTLA4.ECD.hFc [4] it was 0.092 nM; in assay [5], 1.45 nM; in [6], 5.13 nM; in [8], 1.18 nM. In addition, in the assay with hCTLA4.ECD.hFc [9], the EC50 was determined as 0.0989 nM. The “Top(MFI)” value in [5] was determined as 11200 MFI; in assay [6] it was 68100 MFI. Besides, the Inhibition % in [7] stood at 94.4%.

B2: W3248-U6T1.G25R-1.uIgG4.SP, bispecific anti-PD-1 x CTLA-4 (bispecific antibody)
heavy: EVQLLESGGGLVQPGGSLRLSCAASGFTFSSHAMSWVRQAPGKGLEWVSTITGGGGSIYYADSVKGRFTISRDNSKNTLYLQMNSLRAEDTAVYYCAKNRAGEGYFDYWGQGTLVTVSSASTKGPSVFPLAPCSRSTSESTAALGCLVKDYFPEPVTVSWNSGALTSGVHTFPAVLQSSGLYSLSSVVTVPSSSLGTKTYTCNVDHKPSNTKVDKRVGGGGSGGGGSQVQLVESGGGVVQPGRSLRLSCAASGFTFSSYTMHWVRQAPGKGLEWVTFISYDGNNKYYADSVKGRFTISRDNSKNTLYLQMNSLRAEDTAIYYCARTGWLGPFDYWGQGTLVTVLEDLKNVFPPEVAVFEPSEAEISHTQKATLVCLATGFYPDHVELSWWVNGKEVHSGVCTDPQPLKEQPALQDSRYALSSRLRVSATFWQNPRNHFRCQVQFYGLSENDEWTQDRAKPVTQIVSAEAWGRYGPPCPPCPAPEFLGGPSVFLFPPKPKDTLMISRTPEVTCVVVDVSQEDPEVQFNWYVDGVEVHNAKTKPREEQFNSTYRVVSVLTVLHQDWLNGKEYKCKVSNKGLPSSIEKTISKAKGQPREPQVYTLPPSQEEMTKNQVSLTCLVKGFYPSDIAVEWESNGQPENNYKTTPPVLDSDGSFFLYSRLTVDKSRWQEGNVFSCSVMHEALHNHYTQKSLSLSLG
light 1: SYELTQPLSVSVALGQTARITCGGDNIGNKDVHWYQQKPGQAPVLVIYRDSNRPSGIPEGFSGSNSGNTATLTISRAQAGDEADYYCQVWDSIWVFGGGTKLTVLGQPKAAPSVTLFPPSSEELQANKATLVCLISDFYPGAVTVAWKADSSPVKAGVETTTPSKQSNNKYAASSYLSLTPEQWKSHKSYSCQVTHEGSTVEKTVAPTECS
light 2: not shown
notes: IgG4 (S228P); also called U6T1.G25R.IgG4
B2 returned an IC50 in [1] of 1.67 nM. Also, the EC50 was determined as 0.147 nM with hCTLA4.ECD.hFc [2]; 0.145 nM with hCTLA4.ECD.hFc [3]; 0.14 nM in the assay with hCTLA4.ECD.hFc [4]; 5.87 nM in assay [5]; 4.71 nM in assay [6]; 0.948 nM in assay [8]. For the same molecule, the EC50 with hCTLA4.ECD.hFc [9] came out at 0.156 nM. Also, the “Top(MFI)” value in assay [5] worked out at 6650 MFI; in [6], 66800 MFI. Also, the Inhibition % in assay [7] came out at 98.6%.

For orientation: IC50 means the point on the concentration scale where inhibition reaches its midpoint. Low values mean inhibition by little substance, high ones a need for much substance. The EC50 is the concentration needed to bring the measured effect to its halfway point. The low end stands for an effect from little substance, the high end for a need for much substance.

Values taken from patent US20240124586A1 (WUXI BIOLOGICS IRELAND, published 2024).
